Data on 4 molecules can be found in patent US20220194997A1 (CHINESE UNIVERSITY OF HONG KONG, published 2022).

Test [1] addresses T1, SUMO1(15-55) (human, Where it is the MST target, it carries Alexa Fluor 647 NHS ester on amines (NHS-647); the letters do not show this.).
T1 construct: Fragment 15-55 of human SUMO1; Recombinant SUMO1 fragments were made with an N-terminal His-tag removed by thrombin; also called SUMO(15-55); SUMO1(15-55) peptide
T1 peptide: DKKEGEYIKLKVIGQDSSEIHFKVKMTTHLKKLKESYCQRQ
Description: MST; NHS-647 labelled SUMO1(15-55) as target, peptide titrated as ligand. How it is done:
The labelling reaction was performed according to the manufacturer's instructions. Unreacted dye was removed with the dye removal column supplied in the Protein Labelling Kit RED-NHS (NanoTemper Technologies) or desalting column (Bio-Rad). The purity was monitored by measuring the ratio of protein to dye (for example, spectroscopically by measuring absorption at 280 nm for protein and 650 nm for the dye; molar absorbance: 239,000 M⁻¹ cm⁻¹) after the clean-up procedure. The labelled targets were adjusted to appropriate concentration for detection. The ligands were dissolved in reaction buffer and a series of 16 1:1 dilutions was prepared. For the measurement, each ligand dilution was mixed with one volume of labelled protein target. After 10 min incubation, the samples were loaded into standard or premium Monolith NT.115 Capillaries (NanoTemper Technologies). MST was measured using a Monolith NT.115 instrument (NanoTemper Technologies) at an ambient temperature of 25° C. Instrument parameters were adjusted to 20% LED power and medium MST power. Data of three independently pipetted measurements were analyzed (MO.Affinity Analysis software version 2.1.3, NanoTemper Technologies) using the signal from an MST-on time of 5 s.

In test [2] the target is human wild-type α-synuclein (full-length) (human, UniProt P37840 1-140). Put plainly: MST (FIG. 7).
In test [3] the target is T1, SUMO1(15-55). Put plainly: MST (FIG. 11b). How it is done: Unreacted dye was removed with desalting column (2K MWCO, Bio-Rad). The purity was monitored by measuring the ratio of protein to dye after the clean-up procedure. The labelled targets were adjusted to appropriate concentration for detection and kept in ddH2O with 0.1% Tween 20, meanwhile, the ligands were maintained in corresponding buffer (peptides: ddH2O; α-synuclein proteins: 20 mM HEPES, 150 mM NaCl, pH 7.4). For each assay, unlabelled ligand was mixed with equal volume of labelled protein target at 16 different serially diluted concentrations at room temperature.

B1: αsyn(74-84) (peptide)
peptide: VTAVAQKTVEG
notes: Peptide fragment of α-synuclein; also called β4 strand peptide
As a reminder, the Kd is the concentration at which binding is half-saturated. Lower therefore signals higher affinity. For the molecule B1, the affinity in test [1], expressed as Kd, was 2210 nM.

In the case of SSEIHFKVKMTTHLKKLKESYCQRQ (also called SUMO(31-55)) [SUMO1(31-55)], the binding result in test [2] is given as “binds”.

B2: αsyn(48-60) (peptide)
peptide: VVHGVATVAEKTK
notes: Synthesized peptide; also called β2-strand peptide αsyn(48-60); SIM 2 (residues 48-60)
Take B2: in test [3], the binding result was “binds”.

B3: αsyn(35-45) (peptide)
peptide: EGVLYVGSKTK
notes: Synthesized peptide fragment of α-synuclein; also called β1 strand peptide; β1-strand peptide-αsyn (35-45)
B3: the Kd in test [1] worked out at 1150 nM. This counts as single-digit micromolar.
